Measured values published in US20020095023A1 (published 2002).
Ends that are not written are not given here.

B1: Recombinant rat HRF (IgE-dependent histamine-releasing factor) (ligand, UniProt P63029 1-172, looked up)
chain: MIIYRDLISHDELFSDIYKIREIADGLCLEVEGKMVSRTEGAIDDSLIGGNASAEGPEGEGTESTVVTGVDIVMNHHLQETSFTKEAYKKYIKDYMKSLKGKLEEQKPERVKPFMTGAAEQIKHILANFNNYQFFIGENMNPDGMVALLDYREDGVTPFMIFFKDGLEMEKC
notes: Expressed in E. coli from pRSET-A and purified on a Ni column; also called recombinant HRF protein; translationally controlled tumor protein; not shown: N-terminal His-tag leader of the pRSET-A vector

Assays:
[1] = target: B1; experiment: competition ELISA on HRF-coated wells, peptide added before phage ph2 (1/25 dilution), anti-M13-HRP
Protocol: (§1) Also, as a negative control, random peptide (ran, amino acid sequence: LMEGCRA) was synthesized. To the wells coated with HRF was added each 30 μl of the peptide solution serially diluted in 6% BSA/PBS from 1000 nM (1000, 100, 10, 1, 0.1, 0.01, 0.001 nM) and the solution was allowed to stand at room temperature for 30 minutes. The 1/25-fold diluted phage solution was added thereto and the whole solution was further allowed to stand for 2 hours. The solution was washed five times with PBST and then, each 100 μl of HRP-conjugated anti-M13 antibodies were added thereto and then, the resulting mixture was allowed to stand for 1 hour. The mixture was washed 6 times with PBST and once with PBS, and thereto was added each 100 μl of peroxydase substrate solution to examine the competition. It can be seen from the above figures that both of the synthetic peptides p2 and p4 bind to HRF competitively with phage clones ph2 and ph4.

BSA = target: T1, BSA (bovine, UniProt P02769); experiment: phage ELISA on coated wells, anti-M13-HRP
T1 construct: control coating of the ELISA wells; also called bovine serum albumin
T1 sequence (P02769 25-607 limits assumed): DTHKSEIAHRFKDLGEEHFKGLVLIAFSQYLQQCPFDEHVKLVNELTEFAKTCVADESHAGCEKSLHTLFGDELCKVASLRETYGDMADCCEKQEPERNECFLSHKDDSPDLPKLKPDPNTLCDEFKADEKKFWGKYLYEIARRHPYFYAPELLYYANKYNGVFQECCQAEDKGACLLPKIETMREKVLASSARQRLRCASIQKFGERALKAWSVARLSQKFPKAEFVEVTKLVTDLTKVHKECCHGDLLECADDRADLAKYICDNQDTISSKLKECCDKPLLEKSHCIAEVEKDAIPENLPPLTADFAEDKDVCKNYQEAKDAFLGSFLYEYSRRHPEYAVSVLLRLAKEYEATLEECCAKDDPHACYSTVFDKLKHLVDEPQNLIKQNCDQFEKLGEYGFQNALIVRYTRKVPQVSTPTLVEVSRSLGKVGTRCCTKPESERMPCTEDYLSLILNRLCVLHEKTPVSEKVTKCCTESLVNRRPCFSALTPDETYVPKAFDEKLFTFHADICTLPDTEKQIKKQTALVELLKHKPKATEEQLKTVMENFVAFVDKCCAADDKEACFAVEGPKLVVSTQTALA
Protocol: That is, the phage plaques were transferred to 1 ml of ER2537 culture solution cultivated in SB medium (OD₆₀₀=0.5˜1) and then, cultured in 37° C. incubator (rpm 250) for 5 hours. Each 100 μl of the culture solution was added to 900 μl of SB medium and cultured overnight. The culture solution was centrifuged twice at 14,000 rpm for 5 minutes per centrifugation and the obtained supernatant was used for ELISA.
To plastic wells, each of which was coated with HRF or BSA (control), 50 μl of a solution obtained by diluting each isolated phage solution with the equivalent amount of 6% BSA/PBS, and the resulting mixture was allowed to stand for 2 hours. After washing five times with PBST, 100 μl of HRP-conjugated anti-M13 antibodies (Pharmacia) diluted in 3% BSA/PBS with the ratio of 1:5000 were added thereto and the whole was allowed to stand for 1 hour. After washing six times with PBST and then, once with PBS, 100 μl of peroxydase substrate solution was added thereto. The chromogenicity was measured using ELISA reader at 405 nm. From FIG. 12, it can be seen that the phages ph1, ph2 and ph4, especially ph2 and ph4, specifically bind to HRF.

[2] = target: T2, (Na,K)ATPase as flowed in the Biacore analysis; experiment: Biacore (SPR); HRF immobilised on CM5 sensor chip, (Na,K)ATPase flowed
T2 construct: domain: large cytoplasmic loop; also called (Na,K)ATPase large cytoplasmic loop
Protocol: Recombinant rat HRF was immobilized on CM5 sensor chip at a concentration of […] in pH 4.0, 10 mM acetate and then, corrected by flowing HBS buffer (0.01 M Hepes, pH 7.4, 0.15 M NaCl, 3 mM EDTA, 0.005% surfactant P20). […] by flowing 50 mM NHS (N-hydroxysuccinimide) and 200 mM EDC(N-ethyl-N-(3-[…])carbodiimide). The binding affinity was measured by flowing (Na,K)ATPase.

[3] = target: B1; experiment: competition ELISA on HRF-coated wells against phage ph2, anti-M13-HRP
Protocol: as §1
b) In order to test whether or not p1, p2 and p4 bind to the identical site on HRF, the wells were coated with HRF according to the substantially same procedure as in the above a). As shown FIG. 14c, p1, p2 and p4 bound to the identical site on HRF.

[4] = target: B1; experiment: competition ELISA on HRF-coated wells, peptide added before phage ph4 (1/25 dilution), anti-M13-HRP
Protocol: as §1

Binder | binding result (BSA) | IC50 (read off the curve) [3] | other results
WYVYPSM [synthetic heptapeptide p2] |  |  | IC50 (read off the curve) [1]: ~40 nM
WEFPGWM (also: displayed on phage coat protein, Whole phage particle in the assay; not shown: phage coat protein of the heptamer library (New England Biolabs); linker and coat protein not described) [phage ph4 displaying peptide p4] | no binding |  | 
B1 |  |  | Kd [2]: 850 nM
WEFPGWM [synthetic heptapeptide p4] |  | ~20 nM | IC50 (read off the curve) [4]: ~10 nM
WYVYPSM (also: displayed on phage coat protein, Whole phage particle in the assay; also called ph2 clone; not shown: phage coat protein of the heptamer library (New England Biolabs); linker and coat protein not described) [phage ph2 displaying peptide p2] | no binding |  | 
LVTYPLP [synthetic heptapeptide p1] |  | ~20 nM | 
